# How the values were obtained:
# [1] = molecular target: T1, TRCW5 antigen (CD3δε-Fc-Avi) (biotinylated (site not stated)); assay: ELISA
# T1 construct: also called recombinant CD3
# [2] = molecular target: T1, TRCW5 antigen (CD3δε-Fc-Avi); assay: binding after heat
# T1 sequence (chain, as listed by the source mutant limits assumed): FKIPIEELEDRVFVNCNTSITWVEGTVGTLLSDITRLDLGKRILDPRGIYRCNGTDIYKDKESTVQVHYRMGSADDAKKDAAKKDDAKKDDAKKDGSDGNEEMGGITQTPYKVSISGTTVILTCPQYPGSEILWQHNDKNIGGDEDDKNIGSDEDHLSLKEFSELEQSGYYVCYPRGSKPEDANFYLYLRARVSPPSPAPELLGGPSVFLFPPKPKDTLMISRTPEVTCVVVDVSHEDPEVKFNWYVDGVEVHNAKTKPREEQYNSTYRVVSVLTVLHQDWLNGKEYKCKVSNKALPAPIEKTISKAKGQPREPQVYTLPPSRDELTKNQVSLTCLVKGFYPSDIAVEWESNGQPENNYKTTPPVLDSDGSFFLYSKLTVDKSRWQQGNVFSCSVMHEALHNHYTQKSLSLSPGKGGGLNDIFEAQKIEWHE
Binder,EC50 [1] [nM],% Retained 55° C. [2] [%],% Retained 60° C. [2] [%],% Retained 65° C. [2] [%]
CD3B2030 N106F (scFv) scFv: QVQLVQSGAEVKKPGSSVKVSCKASGYTFTRSTMHWVKQAPGQGLEWIGYINPSSAYTNYNQKFQGRVTLTADKSTSTAYMELSSLRSEDTAVYYCASPQVHYDYFGFPYWGQGTLVTVSSGGSEGKSSGSGSESKSTGGSEIVLTQSPATLSASPGERVTLSCSASSSVSYMNWYQQKPGQAPRRWIYDSSKLASGVPARFSGSGSGRDYTLTISSLEPEDFAVYYCQQWSRNPPTFGGGTKVEIK,9.7,106,83.3,21.8
CD3B2030 N106G (scFv) scFv: QVQLVQSGAEVKKPGSSVKVSCKASGYTFTRSTMHWVKQAPGQGLEWIGYINPSSAYTNYNQKFQGRVTLTADKSTSTAYMELSSLRSEDTAVYYCASPQVHYDYGGFPYWGQGTLVTVSSGGSEGKSSGSGSESKSTGGSEIVLTQSPATLSASPGERVTLSCSASSSVSYMNWYQQKPGQAPRRWIYDSSKLASGVPARFSGSGSGRDYTLTISSLEPEDFAVYYCQQWSRNPPTFGGGTKVEIK,14.3,115,59.8,1.7
CD3B2030 N106H (scFv) scFv: QVQLVQSGAEVKKPGSSVKVSCKASGYTFTRSTMHWVKQAPGQGLEWIGYINPSSAYTNYNQKFQGRVTLTADKSTSTAYMELSSLRSEDTAVYYCASPQVHYDYHGFPYWGQGTLVTVSSGGSEGKSSGSGSESKSTGGSEIVLTQSPATLSASPGERVTLSCSASSSVSYMNWYQQKPGQAPRRWIYDSSKLASGVPARFSGSGSGRDYTLTISSLEPEDFAVYYCQQWSRNPPTFGGGTKVEIK,10.6,104,98.9,55.7
CD3B2030 N106K (scFv) scFv: QVQLVQSGAEVKKPGSSVKVSCKASGYTFTRSTMHWVKQAPGQGLEWIGYINPSSAYTNYNQKFQGRVTLTADKSTSTAYMELSSLRSEDTAVYYCASPQVHYDYKGFPYWGQGTLVTVSSGGSEGKSSGSGSESKSTGGSEIVLTQSPATLSASPGERVTLSCSASSSVSYMNWYQQKPGQAPRRWIYDSSKLASGVPARFSGSGSGRDYTLTISSLEPEDFAVYYCQQWSRNPPTFGGGTKVEIK,11.7,99.7,87.2,7.3
CD3B2030 N106L (scFv) scFv: QVQLVQSGAEVKKPGSSVKVSCKASGYTFTRSTMHWVKQAPGQGLEWIGYINPSSAYTNYNQKFQGRVTLTADKSTSTAYMELSSLRSEDTAVYYCASPQVHYDYLGFPYWGQGTLVTVSSGGSEGKSSGSGSESKSTGGSEIVLTQSPATLSASPGERVTLSCSASSSVSYMNWYQQKPGQAPRRWIYDSSKLASGVPARFSGSGSGRDYTLTISSLEPEDFAVYYCQQWSRNPPTFGGGTKVEIK,11.4,107,100,25.6
CD3B2030 N106R (scFv) scFv: QVQLVQSGAEVKKPGSSVKVSCKASGYTFTRSTMHWVKQAPGQGLEWIGYINPSSAYTNYNQKFQGRVTLTADKSTSTAYMELSSLRSEDTAVYYCASPQVHYDYRGFPYWGQGTLVTVSSGGSEGKSSGSGSESKSTGGSEIVLTQSPATLSASPGERVTLSCSASSSVSYMNWYQQKPGQAPRRWIYDSSKLASGVPARFSGSGSGRDYTLTISSLEPEDFAVYYCQQWSRNPPTFGGGTKVEIK,10.6,107,104,53.8
CD3B2030 N106S (scFv) scFv: QVQLVQSGAEVKKPGSSVKVSCKASGYTFTRSTMHWVKQAPGQGLEWIGYINPSSAYTNYNQKFQGRVTLTADKSTSTAYMELSSLRSEDTAVYYCASPQVHYDYSGFPYWGQGTLVTVSSGGSEGKSSGSGSESKSTGGSEIVLTQSPATLSASPGERVTLSCSASSSVSYMNWYQQKPGQAPRRWIYDSSKLASGVPARFSGSGSGRDYTLTISSLEPEDFAVYYCQQWSRNPPTFGGGTKVEIK,19.1,64.6,19,0.6
CD3B2051 N106A (scFv) scFv: QVQLVQSGAEVKKPGSSVKVSCKASGYTFTRSTMHWVKQAPGQGLEWMGYINPSSAYTNYNQKFQGRVTLTADKSTSTAYMELSSLRSEDTAVYYCASPQVHYDYAGFPYWGQGTLVTVSSGGSEGKSSGSGSESKSTGGSEIVLTQSPATLSASPGERVTLSCSASSSVSYMNWYQQKPGQAPRRLIYDSSKLASGVPARFSGSGSGRDYTLTISSLEPEDFAVYYCQQWSRNPPTFGGGTKVEIK,12.1,98.9,97,33.3
CD3B2051 N106E (scFv) scFv: QVQLVQSGAEVKKPGSSVKVSCKASGYTFTRSTMHWVKQAPGQGLEWMGYINPSSAYTNYNQKFQGRVTLTADKSTSTAYMELSSLRSEDTAVYYCASPQVHYDYEGFPYWGQGTLVTVSSGGSEGKSSGSGSESKSTGGSEIVLTQSPATLSASPGERVTLSCSASSSVSYMNWYQQKPGQAPRRLIYDSSKLASGVPARFSGSGSGRDYTLTISSLEPEDFAVYYCQQWSRNPPTFGGGTKVEIK,8.05,78.4,15.4,0.5
CD3B2051 N106G (scFv) scFv: QVQLVQSGAEVKKPGSSVKVSCKASGYTFTRSTMHWVKQAPGQGLEWMGYINPSSAYTNYNQKFQGRVTLTADKSTSTAYMELSSLRSEDTAVYYCASPQVHYDYGGFPYWGQGTLVTVSSGGSEGKSSGSGSESKSTGGSEIVLTQSPATLSASPGERVTLSCSASSSVSYMNWYQQKPGQAPRRLIYDSSKLASGVPARFSGSGSGRDYTLTISSLEPEDFAVYYCQQWSRNPPTFGGGTKVEIK,13.8,98.9,33.1,1.5
CD3B2051 N106H (scFv) scFv: QVQLVQSGAEVKKPGSSVKVSCKASGYTFTRSTMHWVKQAPGQGLEWMGYINPSSAYTNYNQKFQGRVTLTADKSTSTAYMELSSLRSEDTAVYYCASPQVHYDYHGFPYWGQGTLVTVSSGGSEGKSSGSGSESKSTGGSEIVLTQSPATLSASPGERVTLSCSASSSVSYMNWYQQKPGQAPRRLIYDSSKLASGVPARFSGSGSGRDYTLTISSLEPEDFAVYYCQQWSRNPPTFGGGTKVEIK,10.9,103,84.2,9
CD3B2051 N106K (scFv) scFv: QVQLVQSGAEVKKPGSSVKVSCKASGYTFTRSTMHWVKQAPGQGLEWMGYINPSSAYTNYNQKFQGRVTLTADKSTSTAYMELSSLRSEDTAVYYCASPQVHYDYKGFPYWGQGTLVTVSSGGSEGKSSGSGSESKSTGGSEIVLTQSPATLSASPGERVTLSCSASSSVSYMNWYQQKPGQAPRRLIYDSSKLASGVPARFSGSGSGRDYTLTISSLEPEDFAVYYCQQWSRNPPTFGGGTKVEIK,11.4,116,91.3,4

# — patent US20250145711A1 (Janssen / Centocor, published 2025)
